Source: US20250297032A1 (CONCEPT TO MEDICINE BIOTECH, published 2025)
Positions count from the first letter of the chain named.

B1: G14 (antibody, V domains shown)
VH: QVQLLESGGGVVQPGRSLRLSCAASGFTFSSYAMHWVRQAPGKGLEWVAFISHDGNRNSYADSVRGRFTISRDNSKNTLYLQMNSLRAEDTAVYYCARDLGYYNGFSYWGQGTLVTVSA
VL: DIVMTQSPSSVSASVGDRVTITCRASQGISSWLAWYQQKPGKAPKLLIYAASSLQSGVPSRFSGSGSGTDFTLTISSLQPEDFATYYCQQANSFPPTFGPGTKVDIK
notes: Full human antibody from a Fab phage library; Tested as a mAb (detected with anti-human IgG, captured on Protein A); also called FAP-G14; FAP-G14-Bio (biotin-conjugated form)
B2: I30 (antibody, V domains shown)
VH: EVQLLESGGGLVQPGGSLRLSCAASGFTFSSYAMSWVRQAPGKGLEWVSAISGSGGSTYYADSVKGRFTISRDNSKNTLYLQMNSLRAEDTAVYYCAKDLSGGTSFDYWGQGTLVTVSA
VL: B1 VL with D1A, V3R, M4L, P100G, D105E
notes: Tested as a mAb; also called 130; FAP-I30
B3: J40 (antibody, V domains shown)
VH: EVQLLESGGGLVQPGGSLRLSCAASGFTFSSYAMSWVRQAPGKGLEWVSAISGSGGSTYYADSVKGRFTISRDNSKNTLYLQMNSLRTDDTAVYYCARDLTTSTGWESWGQGTLVTVSA
VL: B1 VL with D1N, V3Q, P100Q, V104L, D105E
notes: Tested as a mAb; also called FAP-J40; FAP-J40-Bio (biotin-conjugated form)
B4: I37 (antibody, V domains shown)
VH: QLQLVESGGGLVQPGGSLRLSCAASGFTFSSYAMSWVRQAPGKGLEWVSAISGSGGSTYYADSVKGRFTISRDNSKNTLYLQMNSLRAEDTAVYYCARDKPWGGSFDYWGQGTLVTVSA
VL: B1 VL with V3Q, M4L, V11L, P96V
notes: Tested as a mAb; also called FAP-I37

target: T1, mouse FAPα-His protein (mouse, UniProt P97321 26-761, limits assumed); test: ELISA, plate coated with mouse FAPα-His, anti-human IgG-HRP, OD 450 nm
T1 construct: not shown: His tag
T1 sequence (looked up): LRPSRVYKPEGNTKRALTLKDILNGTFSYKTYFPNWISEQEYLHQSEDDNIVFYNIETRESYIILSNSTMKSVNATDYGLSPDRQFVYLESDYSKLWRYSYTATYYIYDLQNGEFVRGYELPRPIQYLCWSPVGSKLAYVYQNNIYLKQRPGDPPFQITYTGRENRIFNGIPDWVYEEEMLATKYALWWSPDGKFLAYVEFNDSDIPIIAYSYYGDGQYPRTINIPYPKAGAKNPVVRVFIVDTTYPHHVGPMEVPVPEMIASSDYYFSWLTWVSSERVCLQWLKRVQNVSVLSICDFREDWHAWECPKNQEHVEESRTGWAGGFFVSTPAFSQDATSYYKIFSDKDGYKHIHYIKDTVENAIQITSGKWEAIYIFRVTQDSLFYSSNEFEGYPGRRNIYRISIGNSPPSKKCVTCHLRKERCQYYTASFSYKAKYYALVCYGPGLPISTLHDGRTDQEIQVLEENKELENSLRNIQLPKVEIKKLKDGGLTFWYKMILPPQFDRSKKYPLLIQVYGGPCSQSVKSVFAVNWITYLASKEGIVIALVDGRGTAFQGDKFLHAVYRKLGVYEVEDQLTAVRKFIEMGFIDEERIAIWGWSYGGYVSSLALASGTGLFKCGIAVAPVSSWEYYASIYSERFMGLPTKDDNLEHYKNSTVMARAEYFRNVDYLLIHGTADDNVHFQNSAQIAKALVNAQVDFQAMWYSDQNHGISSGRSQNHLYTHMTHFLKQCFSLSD
Description: (§1) Briefly, microtiter plates were coated with mouse FAPα-His protein at 0.5 ug/ml in PBS, 100 μl/well at 4° C. overnight, then blocked with 150 μl/well of 1% BSA. Three-fold dilutions of tested antibodies starting from 1 μg/ml were added to each well and incubated for 1 hour at 37° C. The plates were washed with PBS/Tween and then incubated with Anti-Human IgG (H&L) (GOAT) Antibody Peroxidase Conjugated for 30 mins at 37° C. After washing, the plates were developed with TMB substrate and analyzed by spectrophotometer at OD 450 nm.

Binder | binding result
B1 | no binding (tested: 1000 ng/ml)
B2 | no binding (tested: 1000 ng/ml)
B3 | no binding (tested: 1000 ng/ml)

target: T2, human FAPα-His tag (Sino biological) (human, UniProt Q12884 26-760); test: ELISA, coated human FAPα-His
T2 construct: Bought protein; also called human FAPα-His protein; not shown: His tag
T2 sequence (looked up): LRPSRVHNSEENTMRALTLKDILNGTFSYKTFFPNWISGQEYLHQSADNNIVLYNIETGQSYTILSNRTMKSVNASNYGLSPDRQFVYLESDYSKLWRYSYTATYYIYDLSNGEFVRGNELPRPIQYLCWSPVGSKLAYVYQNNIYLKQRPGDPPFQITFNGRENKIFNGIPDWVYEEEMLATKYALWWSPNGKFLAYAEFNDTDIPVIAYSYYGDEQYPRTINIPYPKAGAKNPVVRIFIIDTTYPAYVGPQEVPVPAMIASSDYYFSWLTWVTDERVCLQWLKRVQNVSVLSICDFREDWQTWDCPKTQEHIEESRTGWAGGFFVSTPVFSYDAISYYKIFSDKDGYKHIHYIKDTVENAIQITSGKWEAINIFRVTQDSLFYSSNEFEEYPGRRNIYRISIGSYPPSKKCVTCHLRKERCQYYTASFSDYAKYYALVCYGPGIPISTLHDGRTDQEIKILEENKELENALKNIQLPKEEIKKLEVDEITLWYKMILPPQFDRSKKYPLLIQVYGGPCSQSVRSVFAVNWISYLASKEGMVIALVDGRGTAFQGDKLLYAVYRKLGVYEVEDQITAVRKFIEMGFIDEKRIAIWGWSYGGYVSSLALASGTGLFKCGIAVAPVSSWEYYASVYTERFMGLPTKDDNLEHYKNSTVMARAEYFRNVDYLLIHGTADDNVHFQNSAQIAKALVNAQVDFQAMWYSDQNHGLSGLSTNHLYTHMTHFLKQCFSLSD
Description: as §1, with “human” for “mouse”, “nm. […] FAP-4B9 clone from Roche was served as positive control which labeled as FAPα-BMK.” for “nm.”

Binder | EC50
B1 | 4.64 ng/mL
B2 | 3.42 ng/mL
B3 | 3.87 ng/mL
B4 | 5.4 ng/mL

target: T2, human FAPα-His tag (Sino biological); test: competitive ELISA on coated human FAPα; competitor (detected): FAP-I30-Bio
Description: (§2) Briefly, microtiter plates were coated with human FAPα proteins at 0.5 μg/ml in PBS, 100 μl/well at 4° C. overnight, then blocked with 150 μl/well of 1% BSA. Serial dilutions of chimeric antibodies as well as biotin-conjugated reference mAb were added to each well and incubated for 1 hour at RT. The plates were washed with PBS/Tween and then incubate with streptavidin-HRP for 15 mins at RT. After washing, the plates were developed with TMB substrate and analyzed by spectrophotometer at OD 450 nm. According to the competition ability to reference mAbs (Benchmark, or “BMK”), all tested FAPα mAbs binds to the similar epitope as shown in Table 5.

Binder | OD 450 nm
B1 | 0.241 OD 450 nm
B2 | 0.143 OD 450 nm
B3 | 0.218 OD 450 nm
B4 | 0.239 OD 450 nm

target: T2, human FAPα-His tag (Sino biological); test: competitive ELISA on coated human FAPα; biotinylated mAb alone, no competing Ab (row '0')
Description: as §2

Binder | OD 450 nm
B1 | 2.15 OD 450 nm
B2 | 1.49 OD 450 nm
B3 | 1.2 OD 450 nm
B4 | 1.72 OD 450 nm

target: T2, human FAPα-His tag (Sino biological); test: competitive ELISA on coated human FAPα; competitor (detected): FAP-I38-Bio
Description: as §2

Binder | OD 450 nm
B1 | 0.658 OD 450 nm
B2 | 0.324 OD 450 nm
B3 | 0.527 OD 450 nm
B4 | 0.703 OD 450 nm

target: T2, human FAPα-His tag (Sino biological); test: competitive ELISA on coated human FAPα; competitor (detected): FAP-G14-Bio
Description: Competitive ELISA was carried out to classify the FAPα mAbs based on the binding epitope to human FAPα.
as §2

Binder | OD 450 nm
B1 | 0.209 OD 450 nm
B2 | 0.129 OD 450 nm
B3 | 0.167 OD 450 nm
B4 | 0.224 OD 450 nm
